Test: yeast display, Sf9 membrane polyspecificity reagent, FACS + sequencing; frameworks hold sequencing errors
Summary of the method: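 Using colony PCR, genes from sorted yeast display clones were amplified, then sequenced on MiSeq at 2 × 250 and filtered by CDR length. The clones had been stained with 10% biotinylated, detergent-solubilized Sf9 membrane reagent for 1 hour at 4 °C and sorted by FACS into low and high (top ~1%) gates on anti-HA and streptavidin fluorescence. Polyreactivity labels come from the gate of origin.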

Row | Sequence | polyreactivity (PSR sort gate)
1 | QVQLVESGGGLVQAGGSLRLSCAPSGITFRSYAMGWYRQAPGKERELVATISWSGGITYYADSVKGRFTISRDNAKNTVYLQMNSLKPEDTAVYYCATASQSWGRDDYYYWGQGTQVTVSS | low polyreactivity
2 | QVQLVESGGGLVQAGGSLRLSCAPSGITFWYYAMGWYRQAPGKERELVAAINKSGGRTYYADSVKGRFTISRDNAKNTVYLQMNSLKPEDTAVYYCAAPRSRSRTSRFDYWGQGTQVTVSS | high polyreactivity
3 | QVQLVESGGGLVQAGGSLRLSCAPSGITLDSNAMGWYRQARGKERELVAAINWSTGSTYYADSVKGRFTISRDNAKNTVYLQMNSLKPEDTAVYYCAVDYRYGYFVYVHYEYWGQGTQETVSS | high polyreactivity
4 | QVQLVESGGGLVQAGGSLRLSCAPSGLIFDANAMGWYRQAPGKERELVAAISNGDSTYYADSVKGRFTISRDNAKNTLYLQMNSLKPEDTAVYYCNARIIYRKWLLRSGTFNYWGQGTQVTVSS | low polyreactivity
5 | QVQLVESGGGLVQAGGSLRLSCAPSGLIFKKYTMGGYRQSPGKERELVASISKSGGSTYYADSVKGRFTFSRDNAKNTYYLQMNCLKPEDTAVYYCNRVSHYIRFDYWVQGTQVTVSS | low polyreactivity
6 | QVQLVESGGGLVQAGGSLRLSCAPSGNTFFLNAMGWYRQAPGKERELVAAITSSGGSTYYADSVKGRFTISRDNAKNTVYLQMNSLKPEDTAVYYCGTDRSYPPRSLNRRGPYEYWGQGTQVTVSS | low polyreactivity
7 | QVQLVESGGGLVQAGGSLRLSCAPSGRTFCPYAMGWYRKAPGKERELVAAISSSGSTTYYADSVKGRFTISRDNAKNTVYLQMNSLKPEDNAVYYCAAVYLRGDGEYDYWGQVTQVTVSS | low polyreactivity
8 | QVQLVESGGGLVQAGGSLRLSCAPSGRTFRFYVMGWYRQAPGKERELVAAISRGGGSTYYADSVKGRFTISRDNAKNTVYLQMNSLKPEDTAVYYCAAKPYKTRSSYWGDYYWGQGTQVTVSS | high polyreactivity
9 | QVQLVESGGGLVQAGGSLRLSCAPSGRTFRYYAMGWYRQAPGKERELVAAINWSGGSTYYADSVKGRFSISRDNAKNAVYLQKNSLKPEDTAVYYCAADEKMYITGYDYWGQGTQVTVSS | low polyreactivity
10 | QVQLVESGGGLVQAGGSLRLSCAPSGRTFVYYAMGWYRQAPGKERELVASISSGGGSTNYADSVKGRFTISRDNAKNTVYLQMNSLKPEDTAVYYCAVDTPRYRYYRTSYDYWGQGTQGTVSS | low polyreactivity
11 | QVQLVESGGGLVQAGGSLRLSCAPSGSIFDSNAMGWYRQAPGKERELVAAISSSGARTYYADSVKGRFTISRDNAKNTVYLQMNSLKPEDTAVYYCAARYAGGYYYWGQGTQVTVSS | high polyreactivity
12 | QVQLVESGGGLVQAGGSLRLSCAPSGSIFPSNVMGWYRQAPGKERELVAAISNTGSTNYADSVKGRFTISRDNAKNTVYLQMNSLKPEDTAVYYCNGDASYGFWSLLDYDYWGQATQVTVSS | low polyreactivity
13 | QVQLVESGGGLVQAGGSLRLSCAPSGSIFQSYAMGWYRQAPGKEREMVAAITRSGGRTYYADSVKGRFTISRDNAKNTVYLQMNSLKPEDTAVYYCAAFGWGYGYWGQGTQVTVSS | high polyreactivity
14 | QVQLVESGGGLVQAGGSLRLSCAPSGSIFRKYAMGRYRQAPGKERELVAAIRSSGGSTYYADSVKGRFTISRDKAKNSVYFQLNSLKPEDTAVYYCAARYYRPSRYDYWGQGTQVTVSS | high polyreactivity
15 | QVQLVESGGGLVQAGGSLRLSCAPSGSIFSYYDIGWYIQAPGKERELVAAISWDGGDRTYADSVKGRFTISRDNAKNTVYLQMTSLKPEDTAVYYFAAGWDASYGYDYWGQGTQLTVSS | low polyreactivity
16 | QVQLVESGGGLVQAGGSLRLSCAPSGSIFVYYGMGWYRQAPRKERELVAAISSGGSTHYADSVKGRFTISRDNAKITVYLQMNSLKPEDTAVYYCAADRFFWLRSYPRYYYWGQGTQVTVSS | low polyreactivity
17 | QVQLVESGGGLVQAGGSLRLSCAPSGSIFYVNAMGWYRQAPGKERELVAAITYDTGRTYYADSVKGRFTISRDNAKNTVYLQKNSLKPEDTAVYYCAVRPGYYWGYWPRFGYWGQGTQVTVSS | low polyreactivity
18 | QVQLVESGGGLVQAGGSLRLSCAPSGSTFGFYAMGWYIQAPGKERELVAAISRGGSTNYADSVKGRFTISRDNAKNTVYLQMNSLKPEDTAVYYCAKAYHATSDYWGQGTQVTVSS | low polyreactivity
19 | QVQLVESGGGLVQAGGSLRLSCAPSGSTFTYNAMGWYRQAPGKERELVASISSGTTTYYADSVKGRFTISRDNAKNTVYLQMNSLKPEDTAVYYCAVDSWSRVQGWLAHNYDYWGQGTQVTVSS | low polyreactivity
20 | QVQLVESGGGLVQAGGSLRLSCAPSGSTFYIYAMGWYRQAPGKERELVAAISTTDGTTYYADSVKGRFTISRDNAKNTVYLQMNSLKPEDTAVYYCAAEWFGSVQPAYDYWGQGTQVTVSS | high polyreactivity
21 | QVQLVESGGGLVQAGGSLRLSCAPSGYTYSDYAMGWYRQAPAKERELVAGITGGGGTYYADSVKGRFTISRDNAKNTVYLQMNSLKPEDTAVYYCAAGRRHGFGYWGQGTQVTVSS | low polyreactivity

Row | Sequence | polyreactivity (PSR sort gate)
22 | QVQLVESGGGLVQAGGSLRLSCASSALIFYWYPIGWYRQAPGKESELVAAISYGGTTTSYADSVKGRFTISRDNATNTVYLQMNSLKPEDTAVYYCAADWLYGHFQITGYPVGVDYWGQGTQVTVSS | low polyreactivity
23 | QVQLVESGGGLVQAGGSLRLSCASSARIFFWYTMGWYSQAPGKERELVAAITSSGNTNYADSVKGRFTISRDNAKNTVYLQMNSLKPEDTAVYYCATGSYSYYSLFDYWGQGTQVTVSS | low polyreactivity
24 | QVQLVESGGGLVQAGGSLRLSCASSGFIFHTYAMGWYRQAPGKERELVAAISGGTSSTYYADSVKGRFTISRDNAKNTVYLQMKSLKPEDTAVYYCAARSRRGGYPRYFYWGQGTQVTVSS | high polyreactivity
25 | QVQLVESGGGLVQAGGSLRLSCASSGFTFAYYAMGWYRQAPGKERELVAAISSRGGSTYADSVKGRFTISRDNAKNTVYLQMNSLKPEYTAVYYCNAVVPRSRYFSWTYDYWGQGTQVTVSS | high polyreactivity
26 | QVQLVESGGGLVQAGGSLRLSCASSGFTFFYYAMGWYRQAPGKERELVAAISASGGSTSYADSVKGRFTISRDNAKNTVYLQMNSLKPEDTAVYYCAARVYSVRSGYYYWGQGTQVTVSS | high polyreactivity
27 | QVQLVESGGGLVQAGGSLRLSCASSGFTFRYYAMGWYRQAPGKERELVAAITGNGGSTYYADSVKGRFTISRDNAKNTVYFQMNSLKPEDTAVYYCNKPYFTASGDRFGYWGQVTQVTVSS | high polyreactivity
28 | QVQLVESGGGLVQAGGSLRLSCASSGFTFSVYAMGWYRQAPGKERELVAAITWRGGSTYYADSVKGRFTISRDNAKNTVYLQMNSLKPEDTAVYYCAVLYPKYGKRYGYWGQGTQVTVSS | high polyreactivity
29 | QVQLVESGGGLVQAGGSLRLSCASSGFTFTYNVMGWYRQAPGKERELVAAISWSGTSTSYADSVKGRFTISRDNAKNTVYLQMNSLNPEDTAVYYCAVQRKSSKRAFRYGYWGQGTQVTVSS | high polyreactivity
30 | QVQLVESGGGLVQAGGSLRLSCASSGFTFYYSMGLYRQAPVKERELVASINYSGGSTYYADSVKGRFTISRDNGKNTLYLQMNSLKAEETGVYYCAVDVRPRGLMYYWGQGTQVTVSS | low polyreactivity
31 | QVQLVESGGGLVQAGGSLRLSCASSGFTLYANAMGWYRQAPGKERELVADISESGSSTSYADSVKGRFTISRDNAKNTVYLQMKSLKPEDTAVYYCYDYWVQGTQVTVSS | low polyreactivity
32 | QVQLVESGGGLVQAGGSLRLSCASSGGTFEVNAMGWYRQAPGKERELVAAIDTSDGSTYYADSVKGRFTISRDNAKNTVYFQMNSLKPEDTSVYYCAAERLFRFWYSAYERYDYWGQGTQVTVSS | low polyreactivity
33 | QVQLVESGGGLVQAGGSLRLSCASSGGTFSPYAMVWYIQAPGKEREMVAVIRSDVTTNYADSVKGRFTISRDNAKNTLYLQMNRLKPEDTAVYYCAVQYLGYGGLFPLDYWGQGTQVTVSS | low polyreactivity
34 | QVQLVESGGGLVQAGGSLRLSCASSGGTFVTNAMGWYRQAPAKERELVAAISYDGGITYYADSVKGRFTISRDNAKNTVYLKMNSLKPEDTAVYYGAAYRRYRNWFNYWGQGTQVTVSS | high polyreactivity
35 | QVQLVESGGGLVQAGGSLRLSCASSGHIFTRNAMGWYIQAPGKERELVAAISRTGGSTYYADSVKGRFTISRDNAKNTVYLQMNSLKPEDTAVYYCNARGTYTSRRGYDYWGQGTQVTVSS | high polyreactivity
36 | QVQLVESGGGLVQAGGSLRLSCASSGIIFSYNAMGWSRQAPGKERELVAAISSGGRTYYADSVKGRFTISRDNAKNTVYLQMKSLKPEDTAVYYCATTSPHRLYGYYYDYWGQGTQVTVSS | high polyreactivity
37 | QVQLVESGGGLVQAGGSLRLSCASSGIIFTFNAKGWYRQAPGKERELVAAISGRGARTYYADSVKGRFTISRDNAKNTVYLKMKSLKPEDTAVYYCAAPSNSYRSLSNSYQYYYWGQGSQVTVSS | high polyreactivity
38 | QVQLVESGGGLVQAGGSLRLSCASSGITFDYYDMGWYRQPPGKERELVAAISTGGGRTYYADSVKGRFTFSRDNAKNTVYLQMNSLKPEDTAVYYCAATYTRVPNRFYYWGQGTQVTVSS | high polyreactivity
39 | QVQLVESGGGLVQAGGSLRLSCASSGITFRYYAMGWYRQAPGKERELVAAITWSGGSTYYADSVKGRFTISRDNAKNTVYLQMNSLKPEDTAVYYCAADAYVLFYGDWYEFDYWGQGTQVTVSS | high polyreactivity
40 | QVQLVESGGGLVQAGGSLRLSCASSGITFSFYVMGWYRQAPGKERELVAAISRGGSTYYADSVKGRFTISRDNANNTVYLQMNSLKPEDSAVYYCAAVRLSRVYYWGQGTQVTVSS | high polyreactivity
41 | QVQLVESGGGLVQAGGSLRLSCASSGLIFPYNAMGWYRKAPGKERELVAAIDSGVTTYYADSVKGRFTISRDNAKNTVYLQMNSLKPEDTAVYYCAAVGLPGPEGDSWGQGTQVTVSS | low polyreactivity

— the nanobody polyreactivity screen of Harvey et al. (2022)
